Experimental data reported in patent US20050048579A1, “Tertiary structures of ICAM-1/LFA-1 modulators” (priority 2003, published 2005).
Bridge positions count the residues as written; N and C are the ends. Ends that are not written are not given here. Peptide text beside a SMILES is read from it.

How the values were obtained:
[1] = target: T1, LFA-1 binding to ICAM-1 (JY cells) (Homo sapiens, UniProt P05362); test: LFA-1:ICAM-1 dependent JY cell aggregation assay (2 hours); assay type: cell-based
T1 construct: endogenous in cells; host or cells: JY cells
Method: Cysteine-constrained peptides, synthesized by Biopeptide (San Diego, Calif., USA), were isolated using high-performance liquid chromatography, and their correct mass was confirmed by mass spectrometry. The peptides were dissolved in 5% dimethylsulfoxide in phosphate-buffered saline (PBS) at concentrations of 10 mm and stored at −80° C. until use. The mAb directed against LFA-1 (TS1/18) was purified from a hybridoma line ([…], Manassas, Va.) as described previously (Oj, V. T. & Herzenberg, T. (1980) Immunoglobulin-producing hybrid celllines. In Selected Methods in Cellular Immunology (Mishell, B. B. & Shiigi, S. M.,eds), H. H. Freeman, New York; Larson, R. S., Brown, D. C. & Sklar, L. A.(1997) Retinoic acid induces aggregation of the acute promyelocytic leukemia cell lineNB-4 by utilization of LFA-1 and ICAM-2.Blood 90, 2747-2756; Rothlein, R. & Springer, T. A. (1986) The requirement for lymphocyte function associated antigen 1 in homotypic leukocyte adhesion stimulated by phorbol ester. J. Exp.Med. 163, 1132-1149).
(§1) JY cells were maintained in RPMI-1640 medium supplemented with 10% fetal bovine serum at 37° C. in an atmosphere containing 5% CO2 in air. The aggregation of JY cells, which is dependent on LFA-1 binding to ICAM-1, was determined as previously reported (Shannon, J. P., Silva, M. V., Brown, D. C. & Larson, R. S. (2001) Novel cyclic peptide inhibits intercellular adhesion molecule-1-mediated cell aggregation. J. Pept. Res. 58, 140-150; Larson, R. S., Brown, D. C. & Sklar, L. A.(1997) Retinoic acid induces aggregation of the acute promyelocytic leukemia cell lineNB-4 by utilization of LFA-1 and ICAM-2.Blood 90, 2747-2756; Rothlein, R. & Springer, T. A. (1986) The requirement for lymphocyte function associated antigen 1 in homotypic leukocyte adhesion stimulated by phorbol ester. J. Exp.Med. 163, 1132-1149). Briefly, JY cells were washed twice with serum-free media and resuspended at a concentration of 4×10^5 cells/mL. Cells were then preincubated with various concentrations of peptides or mAb for 15 minutes at room temperature. A 50 μL aliquot of cells was seeded in each well of a 96-well flat-bottomed microtiterplate followed by the addition of either peptide or mAb to a final volume of 100 μL. Cells were allowed to aggregate at 37° C. in humidified air containing 5% CO2. Within each well, the number of aggregates and the total number of free (single) cells were counted by inverted phase microscopy. Percent aggregation, P, was then determined as follows: P=100(1−Ff/Fi), where Ff (Fi) is the final (initial) number of free cells. Percent aggregation was then used to calculate percent inhibition, I, as follows: […], where Pi (Pc) is the percent aggregation with modulatory peptide (control). The constants for 50% inhibition (IC50) were derived from a linear fit to the percent inhibition at four concentrations (50 μm, 100 μm, 500 μm, and 1 mm) of inhibitory peptide. Each experiment was performed at least three times, with each condition performed in duplicate. The data are reported as the mean values and the SDs of each IC50.

[2] = target: T1, LFA-1 binding to ICAM-1 (JY cells); test: LFA-1:ICAM-1 dependent cell aggregation assay, slightly modified (360 minute incubations); assay type: cell-based; conditions: cell aggregation
Method: as §1
The same general procedure was used as described in Example 1.
The functional activity of each IP02 derivative was measured in a slightly-modified version of the previously described cell aggregation assay (Shannon, J. P., Silva, M. V., Brown, D. C., & Larson, R. S. (2001). Novel cyclic peptide inhibits intercellular adhesion molecule-1-mediated cell aggregation. J. Pept. Res. 58, 140-150; Merchant, S. H., Gurule, D. M., Larson, R. S. (2003). Amelioration of ischemia-reperfusion injury with cyclic peptide blockade of ICAM-1. Am. J. Physiol. Heart Circ. 284,H1260-1268; Larson, R. S., Brown, D. C., and Sklar, L. A. (1997). Retinoic acid induces aggregation of the acute promyelocytic leukemia cell line NB-4 by utilization of LFA-1 and ICAM-2. Blood 90, 2747-2756; Rothlein, R. and Springer, T. A. (1986). The requirement for lymphocyte function-associated antigen 1 in homotypic leukocyte adhesion stimulated by phorbol ester. J. Exp. Med. 163, 1132-1149). Longer incubations (360 minutes) were used here instead of the earlier 120 minute incubations in order to increase the observed differences among peptide antagonists. Of all the amino acid substitutions, replacement of R6 with K, to produce IP02-K6, improved the IC50 the most. […] Alternatively, replacement of L2 or L3 with V (IP02-V2 and IP02-V3) or A8 with L (IP02-L8) abrogated activity, with IC50s exceeding 1,000 μM.

[3] = target: T2, Intercellular adhesion molecule-1 (ICAM-1) on JY cells (UniProt P05362 28-532, limits assumed); test: cell-based or functional assay
[4] = target: T2, Intercellular adhesion molecule-1 …; test: cell-based or functional assay; remark: listed apart in the source

T1 sequence (P05362 28-532): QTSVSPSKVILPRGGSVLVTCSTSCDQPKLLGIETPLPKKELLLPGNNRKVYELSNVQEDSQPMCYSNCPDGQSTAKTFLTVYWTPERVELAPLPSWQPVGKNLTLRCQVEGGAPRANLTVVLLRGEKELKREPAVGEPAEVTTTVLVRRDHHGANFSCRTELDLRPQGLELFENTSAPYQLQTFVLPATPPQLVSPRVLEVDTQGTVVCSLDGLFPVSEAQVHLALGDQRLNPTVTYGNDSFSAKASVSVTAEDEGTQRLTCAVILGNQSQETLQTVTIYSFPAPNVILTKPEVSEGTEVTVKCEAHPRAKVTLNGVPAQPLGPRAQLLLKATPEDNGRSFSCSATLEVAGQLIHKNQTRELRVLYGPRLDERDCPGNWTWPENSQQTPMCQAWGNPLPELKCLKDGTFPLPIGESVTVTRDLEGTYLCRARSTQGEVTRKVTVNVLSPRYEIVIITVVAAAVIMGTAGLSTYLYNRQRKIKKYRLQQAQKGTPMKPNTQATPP
T2 sequence (P05362 28-532 limits assumed): as the sequence (P05362 28-532) above

CC[C@H](C)[C@@H]1NC(=O)[C@H](CO)NC(=O)[C@H](CCCNC(=N)N)NC(=O)[C@H](C)NC(=O)[C@H](CCCNC(=N)N)NC(=O)[C@H](CC(C)C)NC(=O)[C@H](CC(C)C)NC(=O)[C@@H](N)CSSC[C@@H](C(=O)O)NC1=O [IP01-A5, CLLRARSIC] (H-CLLRARSIC-OH; disulfide 1-9; N-terminus and C-terminus assumed)
IC50 [1]: > 1000 µM

CC[C@H](C)[C@@H]1NC(=O)[C@H](CC(C)C)NC(=O)[C@@H](N)CSSC[C@@H](C(=O)O)NC(=O)[C@H](C)NC(=O)[C@H](CO)NC(=O)[C@H](CCCNC(=N)N)NC(=O)[C@H](CCSC)NC(=O)[C@H](CCCNC(=N)N)NC1=O [IP02-13, CLIRMRSAC] (H-CLIRMRSAC-OH; disulfide 1-9; N-terminus and C-terminus assumed)
IC50 ([2]; unit μm [sic]): ~700 µM

CSCC[C@@H]1NC(=O)[C@H](CCCNC(=N)N)NC(=O)[C@H](CC(C)C)NC(=O)[C@H](CC(C)C)NC(=O)[C@@H](N)CSSC[C@@H](C(=O)O)NC(=O)[C@H](C(C)C)NC(=O)[C@H](CO)NC(=O)[C@H](CCCNC(=N)N)NC1=O [IP02-V8] (H-CLLRMRSVC-OH; disulfide 1-9; N-terminus and C-terminus assumed)
IC50 [2]: 700 µM
IC50 ([2]; unit μm [sic]): ~700 µM

CSCC[C@@H]1NC(=O)[C@H](CCCCN)NC(=O)[C@H](CC(C)C)NC(=O)[C@H](CC(C)C)NC(=O)[C@@H](N)CSSC[C@@H](C(=O)O)NC(=O)[C@H](C)NC(=O)[C@H](CO)NC(=O)[C@H](CCCNC(=N)N)NC1=O [IP02-K4, CLLKMRSAC] (H-CLLKMRSAC-OH; disulfide 1-9; N-terminus and C-terminus assumed)
IC50 [2]: 105 to 190 µM

CSCC[C@@H]1NC(=O)[C@H](CCCNC(=N)N)NC(=O)[C@H](C(C)C)NC(=O)[C@H](CC(C)C)NC(=O)[C@@H](N)CSSC[C@@H](C(=O)O)NC(=O)[C@H](C)NC(=O)[C@H](CO)NC(=O)[C@H](CCCNC(=N)N)NC1=O [IP02-V3] (H-CLVRMRSAC-OH; disulfide 1-9; N-terminus and C-terminus assumed)
IC50 [2]: > 1000 µM

CSCC[C@@H]1NC(=O)[C@H](CCCNC(=N)N)NC(=O)[C@H](CC(C)C)NC(=O)[C@H](CC(C)C)NC(=O)[C@@H](N)CSSC[C@@H](C(=O)O)NC(=O)[C@H](CC(C)C)NC(=O)[C@H](CO)NC(=O)[C@H](CCCNC(=N)N)NC1=O [IP02-L8, CLLRMRSLC] (H-CLLRMRSLC-OH; disulfide 1-9; N-terminus and C-terminus assumed)
IC50 [2]: > 1000 µM

CC[C@H](C)[C@@H]1NC(=O)[C@H](C)NC(=O)[C@H](CCCNC(=N)N)NC(=O)[C@H](CCSC)NC(=O)[C@H](CCCNC(=N)N)NC(=O)[C@H](CC(C)C)NC(=O)[C@H](CC(C)C)NC(=O)[C@@H](N)CSSC[C@@H](C(=O)O)NC1=O [IP01-A7, CLLRMRAIC] (H-CLLRMRAIC-OH; disulfide 1-9; N-terminus and C-terminus assumed)
bioactivity after alanine substitution (in words) ([1]; listed as S7 to alanine substitution): retained significant bioactivity

CC[C@H](C)[C@@H]1NC(=O)[C@@H](N)CSSC[C@@H](C(=O)O)NC(=O)[C@H](C)NC(=O)[C@H](CO)NC(=O)[C@H](CCCNC(=N)N)NC(=O)[C@H](CCSC)NC(=O)[C@H](CCCNC(=N)N)NC(=O)[C@H](CC(C)C)NC1=O [IP02-12, CILRMRSAC] (H-CILRMRSAC-OH; disulfide 1-9; N-terminus and C-terminus assumed)
IC50 [2]: 105 to 190 µM

CC[C@H](C)[C@@H]1NC(=O)[C@H](CO)NC(=O)[C@H](C)NC(=O)[C@H](CCSC)NC(=O)[C@H](CCCNC(=N)N)NC(=O)[C@H](CC(C)C)NC(=O)[C@H](CC(C)C)NC(=O)[C@@H](N)CSSC[C@@H](C(=O)O)NC1=O [IP01-A6, CLLRMASIC] (H-CLLRMASIC-OH; disulfide 1-9; N-terminus and C-terminus assumed)
IC50 [1]: > 1000 µM

CSCC[C@@H]1NC(=O)[C@H](CCCNC(=N)N)NC(=O)[C@H](CC(C)C)NC(=O)[C@H](C(C)C)NC(=O)[C@@H](N)CSSC[C@@H](C(=O)O)NC(=O)[C@H](C)NC(=O)[C@H](CO)NC(=O)[C@H](CCCNC(=N)N)NC1=O [IP02-V2] (H-CVLRMRSAC-OH; disulfide 1-9; N-terminus and C-terminus assumed)
IC50 [2]: > 1000 µM

CLLRMRSIC (disulfide 1-9) [IP01 (inhibitory peptide-01)]
IC50, inhibition of JY cell aggregation at 2 hours [3]: 530 µM
IC50, inhibition of JY cell aggregation, 360 minute incubation [4]: 580 µM

CLLRMKSAC (disulfide 1-9) [IP02-K6]
IC50, inhibition of JY cell aggregation, 360 minute incubation [4]: 90 µM
fold smaller IC50 than IP01 (JY cell aggregation, 360 minutes) [4]: ~6 fold

CVLRMRSAC (disulfide 1-9) [IP02-V2]
IC50, inhibition of JY cell aggregation, 360 minute incubation [4]: > 1000 µM

CLVRMRSAC (disulfide 1-9) [IP02-V3]
IC50, inhibition of JY cell aggregation, 360 minute incubation [4]: > 1000 µM

CLLRMRSLC (disulfide 1-9) [IP02-L8]
IC50, inhibition of JY cell aggregation, 360 minute incubation [4]: > 1000 µM

CALRMRSIC (disulfide 1-9) [IP01-A2]
IC50, inhibition of JY cell aggregation at 2 hours [3]: > 1000 µM

CLIRMRSAC (disulfide 1-9) [IP02-I3]
IC50, inhibition of JY cell aggregation, 360 minute incubation [4]: ~700 µM

CLLRMRSVC (disulfide 1-9) [IP02-V8]
IC50, inhibition of JY cell aggregation, 360 minute incubation [4]: ~700 µM

CLLRMRSAC (disulfide 1-9) [IP02]
IC50, inhibition of JY cell aggregation at 2 hours [3]: 210 µM
IC50, inhibition of JY cell aggregation, 360 minute incubation [4]: 480 µM
fold improvement of activity over IP01 (JY cell aggregation) [4]: 2 fold
fold improvement of inhibition over IP01 (JY cell aggregation IC50) [4]: 2.5 fold

CLARMRSIC (disulfide 1-9) [IP01-A3]
IC50, inhibition of JY cell aggregation at 2 hours [3]: > 1000 µM

CLLRARSIC (disulfide 1-9) [IP01-A5]
IC50, inhibition of JY cell aggregation at 2 hours [3]: > 1000 µM

CLLRMASIC (disulfide 1-9) [IP01-A6]
IC50, inhibition of JY cell aggregation at 2 hours [3]: > 1000 µM

CLLRMRAIC (disulfide 1-9) [IP01-A7]
IC50, inhibition of JY cell aggregation at 2 hours [3]: 740 µM
